From patent US20210388087A1 (Chugai, published 2021)
Where a chain is given by its changes, count along the chain named. One block for each binder: values may come before it.

Biological target: T1, Human CD137 ECD (human)
T1 construct: entry includes C-terminal His-tag and biotin acceptor peptide; also called human CD137 extracellular domain; 4-1BB
Test: Biacore SPR, vs parent H183/L072

T1 sequence (chain, as listed by the source limits assumed): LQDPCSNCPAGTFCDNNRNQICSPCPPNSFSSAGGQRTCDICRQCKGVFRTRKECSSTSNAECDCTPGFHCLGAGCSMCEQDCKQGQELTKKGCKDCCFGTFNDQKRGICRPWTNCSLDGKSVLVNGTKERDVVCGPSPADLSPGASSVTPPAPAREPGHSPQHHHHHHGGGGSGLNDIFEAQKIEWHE

fold change of affinity: 0 fold
B1: H183/L072 VL H34P (antibody, name in Kabat numbering, V domains shown)
VH: QVQLVESGGGLVQPGRSLRLSCAASGFTFSNAWMHWVRQAPGKGLEWVAQIKDKGNAYAAYYAPSVKGRFTISRDDSKNSIYLQMNSLKTEDTAVYYCHYVHYASASTVLPAFGVDAWGQGTTVTVSS
VL: DIVMTQSPLSLPVTPGEPASISCQASQELVHMNRNTYLPWYQQKPGQAPRLLIYKVSNRFPGVPDRFSGSGSGTDFTLKISRVEAEDVGVYYCAQGTSVPFTFGQGTKLEIK
notes: Dual-Ig

fold change of affinity: 1.7 fold
B2: H183/L072 VL K50R (antibody, name in Kabat numbering, V domains shown)
VH: B1 VH
VL: B1 VL with P39H, K55R
notes: Dual-Ig

fold change of affinity: 0 fold
B3: H183/L072 VL K50S (antibody, name in Kabat numbering, V domains shown)
VH: B1 VH
VL: B1 VL with P39H, K55S
notes: Dual-Ig

fold change of affinity: 0.3 fold
B4: H183/L072 VL K50V (antibody, name in Kabat numbering, V domains shown)
VH: B1 VH
VL: B1 VL with P39H, K55V
notes: Dual-Ig

fold change of affinity: 2.5 fold
B5: H183/L072 VL K50I (antibody, name in Kabat numbering, V domains shown)
VH: B1 VH
VL: B1 VL with P39H, K55I
notes: Dual-Ig

fold change of affinity: 0 fold
B6: H183/L072 VL K50H (antibody, name in Kabat numbering, V domains shown)
VH: B1 VH
VL: B1 VL with P39H, K55H
notes: Dual-Ig

fold change of affinity: 0.1 fold
B7: H183/L072 VL K50F (antibody, name in Kabat numbering, V domains shown)
VH: B1 VH
VL: B1 VL with P39H, K55F
notes: Dual-Ig

fold change of affinity: 2.9 fold
B8: H183/L072 VL K50M (antibody, name in Kabat numbering, V domains shown)
VH: B1 VH
VL: B1 VL with P39H, K55M
notes: Dual-Ig

fold change of affinity: 0 fold
B9: H183/L072 VL K50G (antibody, name in Kabat numbering, V domains shown)
VH: B1 VH
VL: B1 VL with P39H, K55G
notes: Dual-Ig

fold change of affinity: 0 fold
B10: H183/L072 VL K50E (antibody, name in Kabat numbering, V domains shown)
VH: B1 VH
VL: B1 VL with P39H, K55E
notes: Dual-Ig

fold change of affinity: 0.1 fold
B11: H183/L072 VL K50A (antibody, name in Kabat numbering, V domains shown)
VH: B1 VH
VL: B1 VL with P39H, K55A
notes: Dual-Ig

fold change of affinity: 1 fold
B12: H183/L072 VL K50L (antibody, name in Kabat numbering, V domains shown)
VH: B1 VH
VL: B1 VL with P39H, K55L
notes: Dual-Ig

fold change of affinity: 0 fold
B13: H183/L072 VL H34V (antibody, name in Kabat numbering, V domains shown)
VH: B1 VH
VL: B1 VL with P39V
notes: Dual-Ig

fold change of affinity: 0 fold
B14: H183/L072 VL K50D (antibody, name in Kabat numbering, V domains shown)
VH: B1 VH
VL: B1 VL with P39H, K55D
notes: Dual-Ig

fold change of affinity: 0.2 fold
B15: H183/L072 VL K50Q (antibody, name in Kabat numbering, V domains shown)
VH: B1 VH
VL: B1 VL with P39H, K55Q
notes: Dual-Ig

fold change of affinity: 0.2 fold
B16: H183/L072 VL K50T (antibody, name in Kabat numbering, V domains shown)
VH: B1 VH
VL: B1 VL with P39H, K55T
notes: Dual-Ig

fold change of affinity: 0 fold
B17: H183/L072 VL K50P (antibody, name in Kabat numbering, V domains shown)
VH: B1 VH
VL: B1 VL with P39H, K55P
notes: Dual-Ig

fold change of affinity: 0.4 fold
B18: H183/L072 VL K50N (antibody, name in Kabat numbering, V domains shown)
VH: B1 VH
VL: B1 VL with P39H, K55N
notes: Dual-Ig
